# Measured values published in patent US20080160023.
# T1: recombinant mouse Scp2 with C-terminal myc-6xHis tag, P32020
# T1 chain: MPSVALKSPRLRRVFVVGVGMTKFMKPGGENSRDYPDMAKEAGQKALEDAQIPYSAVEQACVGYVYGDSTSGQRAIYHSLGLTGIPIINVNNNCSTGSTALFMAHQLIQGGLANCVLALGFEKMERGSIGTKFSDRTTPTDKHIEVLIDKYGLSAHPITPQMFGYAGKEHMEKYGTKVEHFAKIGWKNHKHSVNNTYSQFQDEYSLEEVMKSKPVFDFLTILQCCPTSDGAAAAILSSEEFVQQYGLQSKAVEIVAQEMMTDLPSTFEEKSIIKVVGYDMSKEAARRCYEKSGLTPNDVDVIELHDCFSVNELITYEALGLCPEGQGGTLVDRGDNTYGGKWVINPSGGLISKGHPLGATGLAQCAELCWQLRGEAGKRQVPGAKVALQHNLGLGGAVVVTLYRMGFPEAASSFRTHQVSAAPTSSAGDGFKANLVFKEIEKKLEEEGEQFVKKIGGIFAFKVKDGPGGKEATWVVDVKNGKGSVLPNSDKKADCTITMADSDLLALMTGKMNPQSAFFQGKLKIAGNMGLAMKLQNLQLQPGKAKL
# T2: recombinant rat Acaa1 with 6xHis N-terminal tag, P07871
# T2 chain: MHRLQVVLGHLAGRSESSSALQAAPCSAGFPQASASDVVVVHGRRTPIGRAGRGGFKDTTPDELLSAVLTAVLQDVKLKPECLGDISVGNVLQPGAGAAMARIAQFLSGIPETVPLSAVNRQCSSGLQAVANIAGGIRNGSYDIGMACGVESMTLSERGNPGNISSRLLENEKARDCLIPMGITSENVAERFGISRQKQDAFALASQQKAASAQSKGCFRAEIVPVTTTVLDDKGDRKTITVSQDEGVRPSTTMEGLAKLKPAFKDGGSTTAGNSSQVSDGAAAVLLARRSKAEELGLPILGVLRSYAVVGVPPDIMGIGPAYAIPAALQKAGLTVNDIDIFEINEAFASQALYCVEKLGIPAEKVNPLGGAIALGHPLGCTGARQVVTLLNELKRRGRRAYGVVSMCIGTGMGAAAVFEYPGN
# T3: recombinant rat Acox1 with C-terminal myc-6xHis tag, P07872
# T3 chain: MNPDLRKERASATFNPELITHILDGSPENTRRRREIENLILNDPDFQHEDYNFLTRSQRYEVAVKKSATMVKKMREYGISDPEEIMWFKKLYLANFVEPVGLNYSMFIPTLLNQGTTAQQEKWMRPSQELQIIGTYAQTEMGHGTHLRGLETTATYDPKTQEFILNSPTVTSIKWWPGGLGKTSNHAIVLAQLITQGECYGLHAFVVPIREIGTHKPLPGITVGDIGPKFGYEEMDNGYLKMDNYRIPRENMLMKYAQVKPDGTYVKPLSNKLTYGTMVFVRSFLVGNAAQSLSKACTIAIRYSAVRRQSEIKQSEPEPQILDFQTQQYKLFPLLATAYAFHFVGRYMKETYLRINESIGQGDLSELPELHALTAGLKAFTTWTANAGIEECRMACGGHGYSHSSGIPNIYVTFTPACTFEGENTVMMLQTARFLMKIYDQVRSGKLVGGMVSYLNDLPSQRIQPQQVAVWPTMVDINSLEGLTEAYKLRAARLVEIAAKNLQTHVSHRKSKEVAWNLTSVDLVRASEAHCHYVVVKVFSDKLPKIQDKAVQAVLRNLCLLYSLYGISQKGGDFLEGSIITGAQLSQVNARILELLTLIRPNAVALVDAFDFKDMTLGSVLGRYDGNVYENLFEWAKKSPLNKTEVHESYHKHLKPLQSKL
# Tests used:
# [1] = molecular target: T1, recombinant mouse Scp2 with C-terminal …
# [2] = molecular target: T2, recombinant rat Acaa1 with 6xHis …
# [3] = molecular target: T3, recombinant rat Acox1 with C-terminal …
protein,measurement,setting,value
recombinant Tysnd1-FLAG purified from COS-7 cells (protein) chain 1: MGRQWGPSMRVAEQAGCVVSASRAGQPDAGSWSCSGVILSRNPGLVLCHGGIFTPFLRTGSAALTQTGTAFLPGDSCSDDLRLHVQWGPTAASPAGRADQELPGLCTPQCASLGLEPGAPSRARARPLQPPRPAQLLLLLSCPAFRSHFARLFGADAVDQWHFVSSAPDDAVSEEEEEDQLRALGWFALLRVQRGAAAEERRGPVVTVAPLGAVVKGAPLLACGSPFGAFCPDIFLNTLSRGVLSNAAGPLLLTDARCLPGTEGGGVFAARPAGALVALVAAPLCWKAREWVGLTLLCAAAPLLQVARWALARLHPGSASLSVLLPPPDVSTPRGLPLRDLGPPWAAAAVLVECGTVWGSGVVVAPRLVVTCRHVAPREAARVLVHSATPKNVAIWGQVVFATQETSPYDIAVVSLEEELNGVPTPVPAGHFHEGEPVSVVGFGVFGQACGPSVTSGILSAVVRVDGSPVMLQTTCAVHGGSSGGPLFSSGSGDLLGIVASNTRDNNTGATYPHLNFSIPITVLQPALKQYSQTGDLGGLRELDHTTEPVRVVWRLQRPLSE chain 2: VPRSKL,in vitro cleavage (Western blot with anti-cMyc antibody),[1],Scp2 was processed to generate C-terminal fragment of 16 kDa
same,in vitro cleavage (Amido Black staining of the membrane),[2],Incubation of Tysnd1 with Acaa1 resulted in the removal of 3 kDa PTS2-containing N-terminal propeptide to produce mature Acaa1
same,in vitro cleavage (Western blot with anti-cMyc antibody),[3],Acox1 was cleaved to produce C-terminal fragment of 28 kDa
